The text below walks through data of paper PMC12884772, “Macrophagic Sclerostin Loop2‐ApoER2 Interaction Required by Sclerostin for Cardiovascular Protective Action” (Advanced Science, 2025).

One test addresses His-sclerostin loop2. Nature of the test: BLI; Octet RED96e; Figure 6B, 'ApoER2 to sclerostin' and 'to sclerostin loop2'; the methods tell of biotin-ApoER2 loaded on streptavidin biosensors, PBS with 0.02% Tween 20; partner loaded in this panel not given.
Test [1] has as its target full-length His-sclerostin (not stated (recombinant human and mouse sclerostin used in the paper)) (UniProt Q99P68). The description is as above.
Test [2] has as its target ApoER2 protein (R&D, 3520-AR) (UniProt Q14114). Kind of test: BLI; Octet RED96e; Figure S6B, 'sclerostin to ApoER2'; partner loaded in this panel not given.

Sequence of full-length His-sclerostin (Q99P68 24-211): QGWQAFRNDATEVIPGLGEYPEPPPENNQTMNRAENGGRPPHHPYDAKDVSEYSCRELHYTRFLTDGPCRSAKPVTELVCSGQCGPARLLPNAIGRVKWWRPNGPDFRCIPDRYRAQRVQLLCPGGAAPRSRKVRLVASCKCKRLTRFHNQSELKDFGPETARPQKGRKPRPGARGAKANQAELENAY
Sequence of full-length His-sclerostin (not stated (recombinant human and mouse sclerostin used in the paper)) (Q99P68 24-211): as above
Sequence of ApoER2 protein (R&D, 3520-AR) (Q14114 42-826): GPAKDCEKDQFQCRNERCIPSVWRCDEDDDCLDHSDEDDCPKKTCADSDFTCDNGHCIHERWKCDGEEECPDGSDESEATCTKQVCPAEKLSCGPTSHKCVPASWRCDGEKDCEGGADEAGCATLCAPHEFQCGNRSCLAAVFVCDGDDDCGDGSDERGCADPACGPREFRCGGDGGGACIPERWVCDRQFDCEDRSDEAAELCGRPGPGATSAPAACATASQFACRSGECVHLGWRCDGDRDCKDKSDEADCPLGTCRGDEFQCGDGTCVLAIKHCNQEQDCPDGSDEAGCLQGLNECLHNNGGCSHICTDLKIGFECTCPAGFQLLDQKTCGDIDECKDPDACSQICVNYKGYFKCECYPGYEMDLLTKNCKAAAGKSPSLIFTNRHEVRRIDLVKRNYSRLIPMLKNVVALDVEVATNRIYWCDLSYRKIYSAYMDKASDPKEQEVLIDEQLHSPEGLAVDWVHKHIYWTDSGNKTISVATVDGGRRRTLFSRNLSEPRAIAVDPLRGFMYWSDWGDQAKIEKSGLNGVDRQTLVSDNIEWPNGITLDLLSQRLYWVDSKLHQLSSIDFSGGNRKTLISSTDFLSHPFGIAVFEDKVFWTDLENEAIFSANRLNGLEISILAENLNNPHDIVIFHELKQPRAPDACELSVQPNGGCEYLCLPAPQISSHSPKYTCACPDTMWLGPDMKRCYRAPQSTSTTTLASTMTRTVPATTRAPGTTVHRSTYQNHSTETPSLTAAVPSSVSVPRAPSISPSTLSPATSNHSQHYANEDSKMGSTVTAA

Regarding “ApoER2 protein (R&D, 3520-AR) (from UniProt Q14114 42-826) (receptor)”, the Kd in the test with His-sclerostin loop2 amounted to 23 nM; in test [1], 3.8 nM.

“full-length His-sclerostin (from UniProt Q99P68 24-211) (natural protein)” had a Kd in test [2] of 2.1 nM.
